Reference: publication PMC11373624, “Development and preclinical characterization of a novel radiotheranostic EphA2-targeting bicyclic peptide” (Theranostics, 2024)
Numbered stars: 1 amine (or outer) side, 2 acyl side, 3 side chain; on linkers, the order of the positions; unused ones are H or OH. Bridge positions count the residues as written; N and C are the ends. Square brackets hold non-standard residues; d marks the D form. Peptide text beside a SMILES is read from it. * marks the point of attachment. DOTA = O=C(O)CN1CCN(CC(=O)O)CCN(CC(=O)*)CCN(CC(=O)O)CC1; TATA = O=C(CC[*:1])N1CN(C(=O)CC[*:2])CN(C(=O)CC[*:3])C1; Hyp = O=C(O)[C@@H]1C[C@@H](O)CN1; hArg = N=C(N)NCCCC[C@H](N)C(=O)O; Cba = N[C@@H](CC1CCC1)C(=O)O; βAla = NCCC(=O)O; Sar = CNCC(=O)O

Tests used:
in vivo = conditions: mouse; for tissue to tissue ratio at 1 h / tissue to tissue ratio at 2 h / tissue to tissue ratio at 6 h / tissue to tissue ratio at 24 h: iv, 150 pmol
Text: (§1) For the cut and count biodistribution study of [^177Lu]Lu-BCY18469 the HT1080 xenograft model was used. […] (n = 3 mice per time point). Thereafter, mice were dissected, and organs of interest harvested, which included: blood, heart, lung, spleen, liver, kidneys, muscle (quadriceps), intestine, brain, tail, bone (femur) and grafted tumor.

HT1080 tumor xenograft = assay: in vivo; conditions: mouse
Text: as §1

HT1080 cells = assay: Cell surface binding and internalization assay; assay type: cell-based, human
Method: To assess internalization and specificity, HT1080 cells (10^5 cells/well) were seeded in a 24-well plate coated with poly-L-lysine one day before the experiment. […] To determine specific uptake, 'cold' (non-radiolabeled) BCY18469 was added to half of the wells at an excess concentration of 10 µM/well or, alternatively, the cells were kept at 4 °C during the experiment. Following the incubation, the cells were thoroughly rinsed with cold PBS (3 x 1 mL). Subsequently, surface bound radioactivity was removed by washing with 50 mM glycine (pH 2.8, 2 x 500 µL). Finally, the internalized fraction was determined by lysing the cells with 0.5 M NaOH (500 µL). All fractions were collected and measured using a gamma counter (Perkin Elmer Wizard2, Germany). All counts were standardized to the initial activity, and specific surface binding as well as specific internalization were calculated by subtracting the non-specific binding values obtained from the wells treated with an excess of 'cold' compound. Results were calculated and expressed as %AA/10^5 cells (% applied activity/10^5 cells).

[1] = total radioactivity, Tumor-to-blood ratio
[2] = total radioactivity, Tumor-to-heart ratio
[3] = total radioactivity, Tumor-to-intestine ratio
[4] = total radioactivity, Tumor-to-kidneys ratio
[5] = total radioactivity, Tumor-to-liver ratio
[6] = total radioactivity, Tumor-to-lung ratio
[7] = total radioactivity, Tumor-to-muscle ratio
[8] = total radioactivity, Tumor-to-spleen ratio
[9] = total radioactivity, Tumor uptake
[10] = 4°C, block with 10 µM non-labeled compound, listed as 177Lu-BCY18469
[11] = 37°C, 45 min, 30 nM, listed as 177Lu-BCY18469

In the case of CC(C)C[C@@H]1NC(=O)[C@@H]2CSCCC(=O)N3CN(CN(C3)C(=O)CCSC[C@H](NC(=O)[C@H](CC(=O)O)NC(=O)[C@H](CCCCNC(=N)N)NC(=O)[C@H](C)NC(=O)CN(C)C(=O)CN(C)C(=O)CN(C)C(=O)CN(C)C(=O)CN(C)C(=O)CN(C)C(=O)CN(C)C(=O)CN(C)C(=O)CN(C)C(=O)CN(C)C(=O)CCNC(=O)CN3CCN(CC(=O)O)CCN(CC(=O)O)CCN(CC(=O)O)CC3)C(=O)N3C[C@H](O)C[C@H]3C(=O)N[C@@H](CC3CCC3)C(=O)N[C@@H](C(C)C)C(=O)N[C@@H](CC(N)=O)C(=O)N3CCC[C@H]3C(=O)N[C@@H](CC(C)C)C(=O)N2)C(=O)CCSC[C@@H](C(N)=O)NC(=O)[C@H](CCCCNC(=N)N)NC(=O)[C@H](Cc2c[nH]c3ccccc23)NC(=O)[C@@H](CC(=O)O)NC(=O)[C@@H]2CCCN2C(=O)[C@H](Cc2c[nH]cn2)NC1=O [[177Lu]Lu-BCY18469, metal not drawn] ({DOTA-βAla}-[Sar][Sar][Sar][Sar][Sar][Sar][Sar][Sar][Sar][Sar]A[hArg]DC[Hyp][Cba]VNPLCLHP[dD]W[hArg]C-NH2; linker 14-21-28 via TATA), the tissue uptake at 1 h (in vivo; Blood uptake) is reported as 0.2 %ID/g, the tissue uptake at 2 h (in vivo; Blood uptake) is reported as 0.03 %ID/g and the tissue uptake at 6 h (in vivo; Blood uptake) is reported as 0.02 %ID/g. It also gave a tissue uptake at 24 h (in vivo; Blood uptake) of 0.01 %ID/g, a tissue uptake at 1 h (in vivo; Bone uptake) of 0.3 %ID/g and a tissue uptake at 2 h (in vivo; Bone uptake) of 0.21 %ID/g. For the same compound, the tissue uptake at 6 h (in vivo; Bone uptake) was 0.56 %ID/g, the tissue uptake at 24 h (in vivo; Bone uptake) was 0.44 %ID/g and the tissue uptake at 2 h (in vivo; Brain uptake) was 0.01 %ID/g. The tissue uptake at 6 h (in vivo; Brain uptake) was 0.01 %ID/g, the tissue uptake at 1 h (in vivo; Heart uptake) was 0.1 %ID/g and the tissue uptake at 2 h (in vivo; Heart uptake) was 0.03 %ID/g. For the same compound, the tissue uptake at 6 h (in vivo; Heart uptake) was 0.05 %ID/g, the tissue uptake at 24 h (in vivo; Heart uptake) was 0.03 %ID/g and the tissue uptake at 1 h (in vivo; Intestine uptake) was 0.34 %ID/g. The tissue uptake at 2 h (in vivo; Intestine uptake) was 0.16 %ID/g, the tissue uptake at 6 h (in vivo; Intestine uptake) was 0.15 %ID/g and the tissue uptake at 24 h (in vivo; Intestine uptake) was 0.1 %ID/g. It also gave a tissue uptake at 1 h (in vivo; Kidneys uptake) of 65.3 %ID/g, a tissue uptake at 2 h (in vivo; Kidneys uptake) of 47.2 %ID/g and a tissue uptake at 6 h (in vivo; Kidneys uptake) of 62.6 %ID/g. It also gave a tissue uptake at 1 h (in vivo; Liver uptake) of 0.25 %ID/g, a tissue uptake at 2 h (in vivo; Liver uptake) of 0.15 %ID/g and a tissue uptake at 6 h (in vivo; Liver uptake) of 0.6 %ID/g. It also gave a tissue uptake at 24 h (in vivo; Liver uptake) of 0.53 %ID/g, a tissue uptake at 1 h (in vivo; Lung uptake) of 0.7 %ID/g and a tissue uptake at 2 h (in vivo; Lung uptake) of 0.19 %ID/g. For the same compound, the tissue uptake at 6 h (in vivo; Lung uptake) was 0.28 %ID/g, the tissue uptake at 24 h (in vivo; Lung uptake) was 0.13 %ID/g and the tissue uptake at 1 h (in vivo; Muscle uptake) was 0.06 %ID/g. For the same compound, the tissue uptake at 2 h (in vivo; Muscle uptake) was 0.02 %ID/g, the tissue uptake at 6 h (in vivo; Muscle uptake) was 0.03 %ID/g and the tissue uptake at 24 h (in vivo; Muscle uptake) was 0.02 %ID/g. The tissue uptake at 1 h (in vivo; Spleen uptake) was 0.6 %ID/g, the tissue uptake at 2 h (in vivo; Spleen uptake) was 0.16 %ID/g and the tissue uptake at 6 h (in vivo; Spleen uptake) was 0.4 %ID/g. It also gave a tissue uptake at 24 h (in vivo; Spleen uptake) of 0.31 %ID/g, a tissue uptake at 1 h (in vivo; Tail uptake) of 1.8 %ID/g and a tissue uptake at 2 h (in vivo; Tail uptake) of 0.7 %ID/g. For the same compound, the tissue uptake at 6 h (in vivo; Tail uptake) was 0.83 %ID/g, the tissue uptake at 24 h (in vivo; Tail uptake) was 0.38 %ID/g and the tissue uptake at 2 h (in vivo; Tumor uptake) was 9.99 %ID/g. It also gave a tissue to tissue ratio at 1 h (in vivo; [1]) of 97.5, a tissue to tissue ratio at 2 h (in vivo; [1]) of 333 and a tissue to tissue ratio at 6 h (in vivo; [1]) of 278. For the same compound, the tissue to tissue ratio at 24 h (in vivo; [1]) was 177, the tissue to tissue ratio at 1 h (in vivo; [2]) was 195 and the tissue to tissue ratio at 2 h (in vivo; [2]) was 333. For the same compound, the tissue to tissue ratio at 6 h (in vivo; [2]) was 111, the tissue to tissue ratio at 24 h (in vivo; [2]) was 59 and the tissue to tissue ratio at 1 h (in vivo; [3]) was 57.4. The tissue to tissue ratio at 2 h (in vivo; [3]) was 62.4, the tissue to tissue ratio at 6 h (in vivo; [3]) was 37.1 and the tissue to tissue ratio at 24 h (in vivo; [3]) was 17.7. It also gave a tissue to tissue ratio at 1 h (in vivo; [4]) of 0.3, a tissue to tissue ratio at 2 h (in vivo; [4]) of 0.21 and a tissue to tissue ratio at 6 h (in vivo; [4]) of 0.09. For the same compound, the tissue to tissue ratio at 24 h (in vivo; [4]) was 0.03, the tissue to tissue ratio at 1 h (in vivo; [5]) was 78 and the tissue to tissue ratio at 2 h (in vivo; [5]) was 66.6. It also gave a tissue to tissue ratio at 6 h (in vivo; [5]) of 9.27, a tissue to tissue ratio at 24 h (in vivo; [5]) of 3.34 and a tissue to tissue ratio at 1 h (in vivo; [6]) of 27.9. It also gave a tissue to tissue ratio at 2 h (in vivo; [6]) of 52.6, a tissue to tissue ratio at 6 h (in vivo; [6]) of 19.9 and a tissue to tissue ratio at 24 h (in vivo; [6]) of 13.6. It also gave a tissue to tissue ratio at 1 h (in vivo; [7]) of 325, a tissue to tissue ratio at 2 h (in vivo; [7]) of 500 and a tissue to tissue ratio at 6 h (in vivo; [7]) of 185. For the same compound, the tissue to tissue ratio at 24 h (in vivo; [7]) was 88.5, the tissue to tissue ratio at 1 h (in vivo; [8]) was 32.5 and the tissue to tissue ratio at 2 h (in vivo; [8]) was 62.4. It also gave a tissue to tissue ratio at 6 h (in vivo; [8]) of 13.9, a tissue to tissue ratio at 24 h (in vivo; [8]) of 5.71 and a tissue uptake at 24 h (in vivo; total radioactivity, Kidneys uptake) of 54.9 ± 17.1 %ID/g. It also gave a tissue uptake (in vivo; total radioactivity, Non-target organs uptake) of at most 1 %ID/g, a tissue uptake at 1 h (in vivo; [9]) of 19.5 ± 3.5 %ID/g and a tissue uptake at 6 h (in vivo; [9]) of 5.56 ± 1.24 %ID/g. For the same compound, the tissue uptake at 24 h (in vivo; [9]) was 1.77 ± 0.51 %ID/g, the Brain uptake (HT1080 tumor xenograft; 1 h) was 0 %ID/g and the Brain uptake (HT1080 tumor xenograft; 24 h) was 0 %ID/g. For the same compound, the Tumor-to-muscle ratio (HT1080 tumor xenograft; iv, 150 pmol, 24 h) was 88, the “Cell Surface B 4°C” value (HT1080 cells; [10]) was 0.05 ± 0.01 %AA/10^5 cells and the “Internalization B 4°C” value (HT1080 cells; [10]) was 0.01 ± 0.01 %AA/10^5 cells. The “Cell Surface 4°C” value (HT1080 cells; 4°C, listed as 177Lu-BCY18469) was 0.51 ± 0.01 %AA/10^5 cells, the “Internalization 4°C” value (HT1080 cells; 4°C, listed as 177Lu-BCY18469) was 0.06 ± 0.01 %AA/10^5 cells and the “Cell Surface” value (HT1080 cells; [11]) was 0.62 ± 0.03 %AA/10^5 cells. The Internalization (HT1080 cells; [11]) was 0.13 ± 0.01 %AA/10^5 cells, the “Cell Surface B” value (HT1080 cells; 37°C, block with 10 µM non-labeled compound) was 0.02 ± 0.01 %AA/10^5 cells and the “Internalization B” value (HT1080 cells; 37°C, block with 10 µM non-labeled compound, listed as 177Lu-BCY18469) was 0.01 ± 0.01 %AA/10^5 cells.
